Assay results taken from article PMC4627819, “Bacillus subtilis Bactofilins Are Essential for Flagellar Hook- and Filament Assembly and Dynamically Localize into Structures of Less than 100 nm Diameter underneath the Cell Membrane” (PLoS ONE, 2015).

B1: BacE carrying a hexa-histidine tag (his6-yhbE) (natural protein, Bacillus subtilis, UniProt P39132 1-237, looked up)
chain: MDVVEKLVINGSGSSKGGTFQSVEINGSGTVAGDVECDTFSFNGNGKADGSVKAKAVTISGSGKIHGDVEAESIRMNGTGFIQGEVSAKQLKIAGSSTFGGTVKADGIDISGKAVMEADCETETFQSEGKCKISGLLNADQVIIKLSAGESYAREIGCRHLQVTCRKGMLTLLRLMPQPVLTAELIEGDVIELTNTKAKTVRGNKVIIGPDCQIETVEYSGDYTCDPSASVETSTKL
notes: Bactofilin BacE, product of yhbE, Bacillus subtilis; full-length yhbE cloned into pET16b or pET24d; source: E. coli BL21 (DE3); also coexpressed with untagged BacF, in cell extract
B2: BacF carrying a hexa-histidine tag (6-His-BacF) (natural protein, Bacillus subtilis, UniProt P39133 1-235, looked up)
chain: METTKLGNLKLYGAGHAAGGAYHNVSIKGEGIVGEGLSAVGCRIYGTGLFLGKAETERLRVLGESECKGDLTAGKINIYGTMKVSGSLQFDRFNLKGQTEIGGNMTGESCDVKGKLSVIGDCETEMFHVTGCVDVSGLLNSGEIKLGLSHDISHVQEIGGTTITVKRRASFFSRKKGKLIADVIEGDRVYLENTEAAVVRGKEVIIGPGCSIGTIEYEYKCECDPHSQIKEKTKL
notes: Bactofilin BacF, product of yhbF, Bacillus subtilis; full-length yhbF cloned into pET16b or pET24d; also called YhbF; his6-yhbF; source: E. coli BL21 (DE3); also coexpressed with untagged BacE, in cell extract

Biological target: the molecule itself
Assay: SEC; analytical gel filtration of the purified protein on its own; S200/26-60 column, 20 mM HEPES-Na pH 7.5, 250 mM NaCl, 10 mM KCl, 10 mM MgCl2; fractions analysed by SDS-PAGE

Protein	binding result
B1	binds
B2	binds
